These results are taken from article PMC9939296 (Acta Pharmaceutica Sinica. B, 2022).

One assay deals with T1, DgpA/B/C (human intestinal bacterium PUE, UniProt A0A3Q9WUX0+A0A3Q9WWX8+A0A3Q9WXL1).
T1 sequence (A0A3Q9WWX8 1-367): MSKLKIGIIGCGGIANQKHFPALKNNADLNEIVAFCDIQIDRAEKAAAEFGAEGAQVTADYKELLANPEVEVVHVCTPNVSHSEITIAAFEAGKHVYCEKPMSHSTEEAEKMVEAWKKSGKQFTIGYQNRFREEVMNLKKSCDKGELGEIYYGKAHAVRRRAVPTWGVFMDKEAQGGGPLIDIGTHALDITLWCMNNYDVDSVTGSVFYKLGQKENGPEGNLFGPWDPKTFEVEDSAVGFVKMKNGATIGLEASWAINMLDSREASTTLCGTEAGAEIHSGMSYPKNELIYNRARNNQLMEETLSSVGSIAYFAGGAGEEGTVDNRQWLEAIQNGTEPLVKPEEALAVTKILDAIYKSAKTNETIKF
T1 sequence (A0A3Q9WXL1 1-324): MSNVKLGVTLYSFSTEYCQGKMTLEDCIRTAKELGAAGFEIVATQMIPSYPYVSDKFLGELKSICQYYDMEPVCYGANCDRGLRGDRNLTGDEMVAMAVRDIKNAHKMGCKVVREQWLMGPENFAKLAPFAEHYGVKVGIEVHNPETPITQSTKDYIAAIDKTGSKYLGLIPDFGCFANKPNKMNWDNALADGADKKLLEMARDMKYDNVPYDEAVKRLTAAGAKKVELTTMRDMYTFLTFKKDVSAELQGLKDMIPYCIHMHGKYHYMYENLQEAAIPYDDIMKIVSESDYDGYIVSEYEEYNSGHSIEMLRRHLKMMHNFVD
T1 sequence (A0A3Q9WUX0 1-142): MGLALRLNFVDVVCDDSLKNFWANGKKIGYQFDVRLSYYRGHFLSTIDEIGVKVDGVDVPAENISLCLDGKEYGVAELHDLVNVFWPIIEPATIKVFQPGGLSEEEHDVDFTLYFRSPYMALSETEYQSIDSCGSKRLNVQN
Kind of assay: inhibition of puerarin cleavage, HPLC. The class given is biochemical. The following applies: proposed competitive with puerarin at DgpA pocket; substrate puerarin.

Assay [1] has as its target DgpA (human intestinal bacterium PUE). Description: native gel or EMSA.
For assay [2] the target is unchanged. Kind of assay: SEC.

Take `OC[C@H]1OC(O)[C@H](O)[C@@H](O)[C@@H]1O` (stereo partly drawn) [glucose]: the inhibition ratio result on DgpA/B/C is on record as “cleaving activity of DgpA/B/C was significantly attenuated proportional to glucose concentration”.
For the molecule DgpA (enzyme), the stoichiometry N in assay [1] and in assay [2] was 6 each time.
